Patent publication US7842469B2, “Bioluminescence resonance energy transfer (BRET) systems and methods of use thereof” (Stanford University, priority 2005, dated 2010)
Where two headings read alike, the source gives them in different places.

How the values were obtained:
[1] = target: MDR1 P-glycoprotein (Pgp) (Homo sapiens, UniProt P08183); details: cited from earlier work
[2] = Serum stability in mouse serum at 37° C.; format: in vitro ADME; details: mouse serum, 37° C., mono-exponential fit
Method in brief: (§1)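 Luciferase diluted into mouse or rat serum at 37° C; aliquots withdrawn over time for activity, half-life from mono-exponential decay fit. Emission spectra recorded at ambient temperature with a grating spectrometer and cooled CCD detector.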

[3] = Luciferase activity of purified RLuc mutants (light output integrated over 10 s, luminometer); format: biochemical; details: for Activity (relative to RLuc) bc: benzyl-coelenterazine; for Activity (relative to RLuc) bc / Activity (relative to RLuc) bdc / Activity (relative to RLuc) cp / Activity (relative to RLuc) n / Activity (relative to RLuc) native: relative to native enzyme; for Activity (relative to RLuc) bdc: bisdeoxycoelenterazine; for Activity (relative to RLuc) cp: coelenterazine-cp; for Activity (relative to RLuc) n: coelenterazine-n; for Activity (relative to RLuc) native: native coelenterazine
Method in brief: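 Purified RLuc mutant sample, diluted in EB with 1% HSA, added to room-temperature 100 mM sodium phosphate (pH 7), then 1 μl of 0.5 μg/μl coelenterazine or analog mixed in manually. Light read for 10 s starting ~4 s after luciferin addition. Luminometer calibrated to photons/s against luminol standard in DMSO.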

[4] = Quantum yield measurements; format: biochemical; details: for Quantum Yield (%) bc: benzyl-coelenterazine; for Quantum Yield (%) bdc: bisdeoxycoelenterazine; for Quantum Yield (%) cp: coelenterazine-cp; for Quantum Yield (%) n: coelenterazine-n; for Quantum Yield (%) native: native coelenterazine
Protocol: For quantum yield measurements, separate 1 μl drops of protein (about 2 pm) and substrate (0.2 pm) were placed in a tube, 100 μl of 100 mM sodium phosphate buffer (pH 7) was injected by the luminometer to mix, and the total light output was integrated (generally 5-10 min). For coelenterazine-n, the protein amount was increased 10 fold and the acquisition time lengthened to insure the reaction approached completion.

CHO cells = test: Mammalian expression, transient transfection, light output in CHO cells; format: cell-based, Chinese Hamster; details: pcDNA 3.1 CMV plasmid, 24 hours post transfection, coelenterazine
Excerpt: (§2) Mammalian Expression: In order to construct mammalian expression vectors, bacterial expression vectors containing the desired mutations were used as templates for PCR, with primers designed such that the N-terminal pelB sequence would be replaced by a methionine codon and a C-terminal stop codon would replace the Myc epitope and 6×His tag. The primers also contained appropriate NheI and HindIII restriction sites to allow insertion of the product into the pcDNA 3.1 plasmid (Invitrogen). The resultant plasmids were transiently transfected using SuperFect (Qiagen) into 293T or Chinese Hamster Ovarian (CHO, ATCC# CCL-61) cells growing in 24 well plates following the manufacturer's protocol. Twenty-four hours post transfection, 0.5 μg/well of coelenterazine was added, and the plates were imaged in an IVIS 50 imaging system (Xenogen, Alameda, Calif.).

[5] = Serum stability in rat serum at 37° C.; format: in vitro ADME; details: mono-exponential fit
Method in brief: as §1

293T cells = test: Mammalian expression, transient transfection, light output in 293T cells; format: cell-based, human; details: for Light output after transient transfection, 293T: pcDNA 3.1 CMV plasmid, 24 hours post transfection, coelenterazine
Excerpt: as §2

[6] = Bioluminescence emission spectra; format: physicochemical; details: emission spectrum with native coelenterazine
Method in brief: as §1

[7] = Kinetics (Michaelis-Menten fit to initial reaction velocity); format: biochemical; details: coelenterazine 0.038 to 24 μM; formal standard error of fit
Protocol: Kinetics: Kinetics were assessed by injecting 100 μl of 100 mM sodium phosphate buffer (pH 7) containing coelenterazine onto 1 μl of protein (diluted appropriately in EB containing 1% HSA), and recording the light output for 20 min. The final coelenterazine concentrations tested were 118, 24, 4.7, 0.94, 0.19, and 0.038 μM. The final Luciferase concentrations were in the range of 1-7 pM. Coelenterazine absorbance was corrected for, although this was only significant for the highest concentration (10% attenuation). The values were converted from photons/s to molecules/s using the data from the quantum yield measurements, converted from flux units to mass units via integration, and processed using the kinetic curve fitting program Dynafit.

[8] = system: HT1080 fibro-sarcoma cells; test: BRET vectors with RLuc mutants fused to GFP^2, CCD camera spectral imaging in cells; format: cell-based; details: Coelenterazine400a; normalized with CMV-FLuc; P<0.01
Protocol: Methods: Three different mutations of RLuc, a single mutation C124A, a double mutation C124A/M185V, and a combination of eight mutations called RLuc8, were fused with GFP^2 and tested in HT1080 fibro-sarcoma cells by using CCD camera based spectral imaging. The new vectors were also tested in a small animal tumor model with implanted cells at various tissue depths.
FIG. 7 illustrates a comparative chart showing normalized donor (RLUC) and acceptor (GFP2) signal as measured from 293T cells transiently transfected with the marked plasmid vectors. BRET2 represents GFP2-Rluc, BRET-C represents GFP2-Rluc C124A, BRET-M represents Rluc C124A/M185V, BRET-Rl8 represents GFP2-Rluc8, RL represents Rluc, RL-C represents RLuc C124A, RL-M represents RLuc C124A/M185V, and Rl8 represents Rluc8. CCD camera scans were performed by adding Coelenterazine400a to the well plates. The cells were co-transfected with CMV-FLuc plasmid and scaned at the same time using D-Luciferin substrate for normalization purposes.
FIGS. 8A and 8B illustrate comparative assessments on signal quantification from HT1080 cells stably over-expressing GFP2-Rluc8 (8A) and GFP2-Rluc (8B) plasmid vectors. […] The line represents the calculated BRET ratios at each time point of measurements. […]

Sequence of MDR1 P-glycoprotein (Pgp) (P08183 whole entry): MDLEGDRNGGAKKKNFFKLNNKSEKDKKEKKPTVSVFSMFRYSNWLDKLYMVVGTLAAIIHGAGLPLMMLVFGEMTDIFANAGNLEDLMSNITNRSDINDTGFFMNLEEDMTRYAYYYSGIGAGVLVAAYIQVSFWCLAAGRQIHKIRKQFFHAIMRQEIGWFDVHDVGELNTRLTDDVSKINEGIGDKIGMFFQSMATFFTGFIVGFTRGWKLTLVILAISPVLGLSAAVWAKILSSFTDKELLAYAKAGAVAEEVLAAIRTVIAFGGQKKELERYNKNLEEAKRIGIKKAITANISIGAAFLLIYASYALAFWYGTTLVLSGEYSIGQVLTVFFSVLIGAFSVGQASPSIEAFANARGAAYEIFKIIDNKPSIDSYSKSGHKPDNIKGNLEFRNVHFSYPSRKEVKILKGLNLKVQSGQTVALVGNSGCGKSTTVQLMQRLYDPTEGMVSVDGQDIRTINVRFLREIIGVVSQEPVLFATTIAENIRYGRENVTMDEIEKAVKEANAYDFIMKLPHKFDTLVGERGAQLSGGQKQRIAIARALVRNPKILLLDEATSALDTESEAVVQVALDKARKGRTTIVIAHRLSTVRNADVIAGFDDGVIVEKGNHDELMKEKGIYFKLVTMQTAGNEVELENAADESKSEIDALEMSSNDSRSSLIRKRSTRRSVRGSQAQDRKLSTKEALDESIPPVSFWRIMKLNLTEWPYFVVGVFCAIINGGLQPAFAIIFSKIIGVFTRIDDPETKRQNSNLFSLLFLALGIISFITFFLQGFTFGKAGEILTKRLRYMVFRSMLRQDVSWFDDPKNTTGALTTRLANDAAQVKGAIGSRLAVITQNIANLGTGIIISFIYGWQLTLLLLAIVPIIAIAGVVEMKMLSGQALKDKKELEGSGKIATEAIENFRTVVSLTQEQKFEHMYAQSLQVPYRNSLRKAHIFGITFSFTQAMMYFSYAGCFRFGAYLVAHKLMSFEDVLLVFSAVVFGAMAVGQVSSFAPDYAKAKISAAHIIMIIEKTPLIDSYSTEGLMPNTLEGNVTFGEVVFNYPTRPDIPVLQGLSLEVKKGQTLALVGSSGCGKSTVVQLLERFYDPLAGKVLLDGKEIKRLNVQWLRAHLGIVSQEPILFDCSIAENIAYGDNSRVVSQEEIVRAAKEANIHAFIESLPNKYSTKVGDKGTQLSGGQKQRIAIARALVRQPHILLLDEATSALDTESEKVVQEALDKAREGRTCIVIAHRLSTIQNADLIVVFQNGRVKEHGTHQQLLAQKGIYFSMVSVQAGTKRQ

Molecule	Activity (relative to RLuc) bc [3]	Activity (relative to RLuc) bdc [3]	Activity (relative to RLuc) cp [3]	Activity (relative to RLuc) n [3]	Activity (relative to RLuc) native [3]	substrate for MDR1 P-glycoprotein (Pgp) ([1]; mammalian cells)	Serum τ1/2 (h) mouse [2] [h]	Quantum Yield (%) bc [4] [%]	Quantum Yield (%) bdc [4]	Quantum Yield (%) cp [4] [%]	Quantum Yield (%) n [4] [%]	Quantum Yield (%) native [4] [%]	Light output after transient transfection, CHO (CHO cells)	Serum τ1/2 (h) rat [5] [h]	Light output after transient transfection, 293T (293T cells)	Wavelength (nm) mean [6] [nm]	Wavelength (nm) peak [6] [nm]	further results
Oc1ccc(Cc2nc3c(CC4CCCC4)nc(-c4ccc(O)cc4)cn3c2O)cc1 [coelenterazine-cp]						not substrates for Pgp												
Oc1ccc(Cc2nc3c(Cc4ccccc4)nc(-c4ccc(O)cc4)cn3c2O)cc1 [coelenterazine, Coelenterazine]						is a substrate for MDR1 P-glycoprotein												
Coelenterazine-n																		substrate for MDR1 P-glycoprotein (Pgp) [1]: not substrates for Pgp
C124A/M185V: double mutant (C124A/M185V) Renilla Luciferase protein (SEQ ID NO: 2) (protein, Chemically synthesized Renilla Luciferase) MASKVYDPEQRKRMITGPQWWARCKQMNVLDSFINYYDSEKHAENAVIFLHGNAASSYLWRHVVPHIEPVARCIIPDLIGMGKSGKSGNGSYRLLDHYKYLTAWFELLNLPKKIIFVGHDWGAALAFHYSYEHQDKIKAIVHAESVVDVIESWDEWPDIEEDIALIKSEEGEKMVLENNFFVETVLPSKIMRKLEPEEFAAYLEPFKEKGEVRRPTLSWPREIPLVKGGKPDVVQIVRNYNAYLRASDDLPKMFIESDPGFFSNAIVEGAKKFPNTEFVKVKGLHFSQEDAPDEMGKYIKSFVERVLKNEQ	3.0	44	15	7.8	3.4		5.7	6.3 ± 0.1	(174.4 ± 6.7) × 10^−3%	10.1 ± 0.2	9.4 ± 0.4	6.9 ± 0.3	172.4 ± 8.4 photons × 10^6/s/cm^2/steradian	3.7	174.1 ± 25.7 photons × 10^6/s/cm^2/steradian	500	485	light output compared to M185V alone ([3]; bisdeoxycoelenterazine (Coelenterazine 400a)): 2 fold; increase in activity compared to the C124A mutant ([3]; in vitro): approximately 3 fold; increase in light relative to C124A after transient transfection into mammalian cells (293T cells; mammalian cells (293T or CHO)): approximately 3 fold

Now from value to molecule, other results behind:

Activity (relative to RLuc) bc [3]	Activity (relative to RLuc) bdc [3]	Activity (relative to RLuc) cp [3]	Activity (relative to RLuc) n [3]	Activity (relative to RLuc) native [3]	Molecule	substrate for MDR1 P-glycoprotein (Pgp) ([1]; mammalian cells)	Serum τ1/2 (h) mouse [2] [h]	Quantum Yield (%) bc [4] [%]	Quantum Yield (%) bdc [4]	Quantum Yield (%) cp [4] [%]	Quantum Yield (%) n [4] [%]	Quantum Yield (%) native [4] [%]	Light output after transient transfection, CHO (CHO cells)	Serum τ1/2 (h) rat [5] [h]	Light output after transient transfection, 293T (293T cells)	Wavelength (nm) mean [6] [nm]	Wavelength (nm) peak [6] [nm]	further results
2.8	9.5	3.4	5.0	3.9	C124A/S287L: RLuc mutant C124A/S287L (protein) MASKVYDPEQRKRMITGPQWWARCKQMNVLDSFINYYDSEKHAENAVIFLHGNAASSYLWRHVVPHIEPVARCIIPDLIGMGKSGKSGNGSYRLLDHYKYLTAWFELLNLPKKIIFVGHDWGAALAFHYSYEHQDKIKAIVHAESVVDVIESWDEWPDIEEDIALIKSEEGEKMVLENNFFVETMLPSKIMRKLEPEEFAAYLEPFKEKGEVRRPTLSWPREIPLVKGGKPDVVQIVRNYNAYLRASDDLPKMFIESDPGFFSNAIVEGAKKFPNTEFVKVKGLHFLQEDAPDEMGKYIKSFVERVLKNEQ		28	5.0 ± 0.1	(20.9 ± 0.6) × 10^−3%	7.2 ± 0.3	7.7 ± 0.2	6.1 ± 0.2		20		496	478	
0.75	0.68	0.79	0.63	1.2 ± 0.1	C124A: RLuc with the C124A mutation (C152A in Liu and Escher), with Myc epitope (protein, Myc epitope tag; Chemically synthesized Renilla Luciferase) MASKVYDPEQRKRMITGPQWWARCKQMNVLDSFINYYDSEKHAENAVIFLHGNAASSYLWRHVVPHIEPVARCIIPDLIGMGKSGKSGNGSYRLLDHYKYLTAWFELLNLPKKIIFVGHDWGAALAFHYSYEHQDKIKAIVHAESVVDVIESWDEWPDIEEDIALIKSEEGEKMVLENNFFVETMLPSKIMRKLEPEEFAAYLEPFKEKGEVRRPTLSWPREIPLVKGGKPDVVQIVRNYNAYLRASDDLPKMFIESDPGFFSNAIVEGAKKFPNTEFVKVKGLHFSQEDAPDEMGKYIKSFVERVLKNEQ		7.1 ± 0.4	3.6 ± 0.1	(7.7 ± 0.5) × 10^−3%	5.2 ± 0.1	6.4 ± 0.01	5.4 ± 0.3	64.0 ± 4.9 photons × 10^6/s/cm^2/steradian	6.6 ± 0.5	62.8 ± 12.9 photons × 10^6/s/cm^2/steradian	498	482	Km [7]: 2.7 ± 0.8 µM; kcat [7]: 4.7 ± 0.4 s⁻¹; increase of normalized luciferase signal in comparison to cells expressing GFP^2-RLUC [8]: No significant improvements
